Our source for the Kd and stoichiometry N values is paper PMC10279719.

Non-standard residues stand in square brackets, D forms with d. pT = C[C@@H](OP(=O)(O)O)[C@H](N)C(=O)O Some results are limits rather than exact numbers.

The target in one test is 14-3-3σ (sigma) (human). Briefly: SPR; 14-3-3 isoforms amine coupled to a CM5 chip, tandem peptides as analytes (10 µM-10 nM for PEAK3 tandem-pS69, 20 µM-20 nM for all others); Biacore S200, 20 °C, HBS-TP; steady state, 1:1 model. (In general: SPR reads the build-up and loss of mass on a sensor chip optically.)
Sequence of 14-3-3σ (sigma) (human) (A8K1N0 whole entry, the tested form may be a part, canonical isoform): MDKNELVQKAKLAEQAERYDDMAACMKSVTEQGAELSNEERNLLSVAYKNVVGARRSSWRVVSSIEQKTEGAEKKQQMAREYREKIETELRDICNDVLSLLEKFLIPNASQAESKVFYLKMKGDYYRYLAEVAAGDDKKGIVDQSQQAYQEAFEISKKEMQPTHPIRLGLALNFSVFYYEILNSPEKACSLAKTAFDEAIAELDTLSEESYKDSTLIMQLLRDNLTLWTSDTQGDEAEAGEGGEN
The target in test [1] is 14-3-3η (residues 1-246) (human). The description is as above.
The target in test [2] is 14-3-3γ (residues 1-247) (human). Described as above.
Test [3] has as its target T1, PEAK3^FL from E. coli, phosphorylated by Src (human), Q6ZS72.
T1 chain: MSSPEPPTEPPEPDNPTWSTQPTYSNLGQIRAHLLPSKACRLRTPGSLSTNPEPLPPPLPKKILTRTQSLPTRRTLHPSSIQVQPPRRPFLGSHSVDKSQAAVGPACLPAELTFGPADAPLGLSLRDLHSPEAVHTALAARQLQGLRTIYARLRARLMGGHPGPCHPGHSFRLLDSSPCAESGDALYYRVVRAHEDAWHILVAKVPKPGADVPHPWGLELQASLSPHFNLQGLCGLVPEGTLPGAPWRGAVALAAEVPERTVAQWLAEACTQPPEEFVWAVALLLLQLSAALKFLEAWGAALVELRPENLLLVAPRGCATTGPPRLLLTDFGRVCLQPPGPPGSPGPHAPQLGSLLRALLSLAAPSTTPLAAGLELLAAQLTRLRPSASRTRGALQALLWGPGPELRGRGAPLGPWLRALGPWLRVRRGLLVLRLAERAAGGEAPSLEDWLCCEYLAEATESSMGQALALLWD
Nature of the test: SPR. The following applies: natural protein, biotin (EZ-Link NHS-PEG4-Biotin) where immobilised for SPR, phosphotyrosine at 24 (by Src in vitro; the MS/MS was told for PEAK3^FL in general), remark: other sources report otherwise.

The target in test [4] is T2, full length PEAK3 from insect cells (PEAK3^FL, S69 phosphorylated) (human), Q6ZS72.
T2 chain: T1 chain
Briefly: SPR. The following applies: natural protein, biotin (EZ-Link NHS-PEG4-Biotin) where immobilised for SPR, phosphoserine at 69, remark: other sources report otherwise.

Test [5] concerns the target T3, PEAK3^FL from insect cells, phosphorylated by Src (human), Q6ZS72.
T3 chain: T1 chain
Nature of the test: SPR. The following applies: natural protein, biotin (EZ-Link NHS-PEG4-Biotin) where immobilised for SPR, phosphotyrosine at 24 (by Src in vitro, MS/MS), phosphoserine at 69, remark: other sources report otherwise.

In test [6] the target is T4, full length PEAK3 (PEAK3^FL, residues 1-473), from E. coli (human), Q6ZS72.
T4 chain: T1 chain
Nature of the test: SPR; biotinylated PEAK proteins (with or without Src phosphorylation) captured with a biotin CAPture kit; Grb2 FL, Grb2 SH2, CrkII SH2, CrkII FL monomer or dimer as analytes; Biacore 8K+, 20 °C, HBS-TP with NaCl raised to 500 mM; 1 M NaCl regeneration; steady state. The following applies: remark: other sources report otherwise.

In test [7] the target is T5, full length PEAK3 (PEAK3^FL, residues 1-473), from insect cells, phosphorylated by Src (human), Q6ZS72.
T5 chain: T1 chain
Described as above. The following applies: remark: other sources report otherwise.

For test [8], the target named is T6, full length PEAK3 (PEAK3^FL, residues 1-473), from E. coli, phosphorylated by Src (human), Q6ZS72.
T6 chain: T1 chain
The description is as above. The following applies: remark: other sources report otherwise.

The target of test [9] is full length CrkII, dimer (CrkIIFL dimer) (human), P46108. Briefly: SEC-MALS; Superdex 200 Increase 10/300 GL, 20 mM HEPES pH 7.5, 150 mM NaCl, 1 mM TCEP, 0.5 ml/min. The following applies: remark: other sources report otherwise. A general note: SEC sorts molecules by how far they enter the pores of the column.

A word on the Kd: it is the concentration at which binding is half-saturated. A lower Kd goes with a tighter complex. Consider Ac-PPPLPKKMIIRAN[pT]EPISKD-NH2 [PEAK1 tandem-pT1165 peptide (residues 1152-1171)], for which the values for the Kd (with 14-3-3σ (sigma) (human); in test [1]; in [2]) were 9700 nM, 2560 nM and 1770 nM, respectively.
With Ac-PPPLPQKKIVSRAASSPDGF-NH2 [PEAK2 tandem peptide, non-phosphorylated (residues 812-831)], in the test with 14-3-3σ (sigma) (human), the Kd is above 100000 nM.
Regarding Ac-PPPLPKKMIIRANTEPISKD-NH2 [PEAK1 tandem peptide, non-phosphorylated (residues 1152-1171)], the Kd (with 14-3-3σ (sigma) (human); in test [1]; in test [2]) was above 100000 nM in each case.

B1: full length CrkII, dimer (CrkII^FL dimer), P46108-1 1-304 (natural protein)
chain: MAGNFDSEERSSWYWGRLSRQEAVALLQGQRHGVFLVRDSSTSPGDYVLSVSENSRVSHYIINSSGPRPPVPPSPAQPPPGVSPSRLRIGDQEFDSLPALLEFYKIHYLDTTTLIEPVSRSRQGSGVILRQEEAEYVRALFDFNGNDEEDLPFKKGDILRIRDKPEEQWWNAEDSEGKRGMIPVPYVEKYRPASASVSALIGGNQEGSHPQPLGGPEPGPYAQPSVNTPLPNLQNGPIYARVIQKRVPNAYDKTALALEVGELVKVTKINVSGQWEGECNGKRGHFPFTHVRLLDQQNPDEDFS
For B1, the Kd was found to be 2100 nM in test [3]; 2400 nM in test [4]; 2200 nM in test [5]; 7600 nM in [6]; 2180 nM in [7]; 2110 nM in test [8].

B2: full length CrkII, dimer (CrkIIFL dimer), P46108-1 1-304 (natural protein)
chain: B1 chain
modifications: here or on the partner: biotin (EZ-Link NHS-PEG4-Biotin) in the SPR experiment only; biotin (EZ-Link NHS-PEG4-Biotin) in the SPR experiment only
The stoichiometry N is a count of units in the complex or per binding partner. As for B2, in test [9], the stoichiometry N was found to be 2.

B3: full length CrkII, monomer (CrkII^FL monomer), P46108-1 1-304 (natural protein)
chain: B1 chain
Turning to B3, the Kd in test [3] stood at 2600 nM; in [4] it was 12800 nM; in test [6], 14100 nM; in test [7], 2700 nM.
